Measured values published in patent US20140056878A1 (ANAPTYSBIO, published 2014).
Where a chain is given by its changes, count along the chain named. One block for each binder: values may come before it.

Tests used:
[1] = biological target: complement protein C5 (UniProt P01031 19-673; P01031 678-1676); assay: cell-based or functional assay
[2] = biological target: T1, C5-C345C (Homo sapiens (Human), UniProt P01031 1530-1676); assay: BIACORE screening
T1 construct: C-terminal 147 amino acid residues of the 1648 residue C5 protein; A Myc-tagged or Dylight-650-labelled form was used for FACS selection; In the BIACORE analyses it is named only 'C5-C345C' analyte, and no tag is stated; also called C345C domain of complement C5 protein; C5 domain C5-C345C
T1 sequence (P01031 1530-1676 limits assumed): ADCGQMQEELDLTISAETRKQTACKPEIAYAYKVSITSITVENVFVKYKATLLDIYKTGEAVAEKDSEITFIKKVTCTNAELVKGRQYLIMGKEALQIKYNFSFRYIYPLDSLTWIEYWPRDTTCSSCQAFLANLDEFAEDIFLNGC

Chain of complement protein C5 (P01031 19-673 limits assumed, chain 1 of 2): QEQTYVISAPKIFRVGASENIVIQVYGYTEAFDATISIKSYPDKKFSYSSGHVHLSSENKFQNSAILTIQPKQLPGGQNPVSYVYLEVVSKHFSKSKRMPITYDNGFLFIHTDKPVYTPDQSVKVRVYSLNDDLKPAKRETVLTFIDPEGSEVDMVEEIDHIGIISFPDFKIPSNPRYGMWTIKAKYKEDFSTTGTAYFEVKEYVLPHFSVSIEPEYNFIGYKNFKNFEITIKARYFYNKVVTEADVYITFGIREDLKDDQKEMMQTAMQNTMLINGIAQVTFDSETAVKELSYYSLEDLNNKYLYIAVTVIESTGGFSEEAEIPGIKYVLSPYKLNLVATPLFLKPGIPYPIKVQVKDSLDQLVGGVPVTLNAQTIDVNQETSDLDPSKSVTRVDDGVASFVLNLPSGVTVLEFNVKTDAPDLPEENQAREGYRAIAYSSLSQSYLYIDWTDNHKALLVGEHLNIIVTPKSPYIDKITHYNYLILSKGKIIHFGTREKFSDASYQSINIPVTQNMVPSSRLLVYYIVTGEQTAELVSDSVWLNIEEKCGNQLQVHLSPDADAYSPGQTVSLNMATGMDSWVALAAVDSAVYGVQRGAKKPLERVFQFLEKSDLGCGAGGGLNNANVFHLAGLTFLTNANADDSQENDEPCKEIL
Chain of complement protein C5 (P01031 678-1676 limits assumed, chain 2 of 2): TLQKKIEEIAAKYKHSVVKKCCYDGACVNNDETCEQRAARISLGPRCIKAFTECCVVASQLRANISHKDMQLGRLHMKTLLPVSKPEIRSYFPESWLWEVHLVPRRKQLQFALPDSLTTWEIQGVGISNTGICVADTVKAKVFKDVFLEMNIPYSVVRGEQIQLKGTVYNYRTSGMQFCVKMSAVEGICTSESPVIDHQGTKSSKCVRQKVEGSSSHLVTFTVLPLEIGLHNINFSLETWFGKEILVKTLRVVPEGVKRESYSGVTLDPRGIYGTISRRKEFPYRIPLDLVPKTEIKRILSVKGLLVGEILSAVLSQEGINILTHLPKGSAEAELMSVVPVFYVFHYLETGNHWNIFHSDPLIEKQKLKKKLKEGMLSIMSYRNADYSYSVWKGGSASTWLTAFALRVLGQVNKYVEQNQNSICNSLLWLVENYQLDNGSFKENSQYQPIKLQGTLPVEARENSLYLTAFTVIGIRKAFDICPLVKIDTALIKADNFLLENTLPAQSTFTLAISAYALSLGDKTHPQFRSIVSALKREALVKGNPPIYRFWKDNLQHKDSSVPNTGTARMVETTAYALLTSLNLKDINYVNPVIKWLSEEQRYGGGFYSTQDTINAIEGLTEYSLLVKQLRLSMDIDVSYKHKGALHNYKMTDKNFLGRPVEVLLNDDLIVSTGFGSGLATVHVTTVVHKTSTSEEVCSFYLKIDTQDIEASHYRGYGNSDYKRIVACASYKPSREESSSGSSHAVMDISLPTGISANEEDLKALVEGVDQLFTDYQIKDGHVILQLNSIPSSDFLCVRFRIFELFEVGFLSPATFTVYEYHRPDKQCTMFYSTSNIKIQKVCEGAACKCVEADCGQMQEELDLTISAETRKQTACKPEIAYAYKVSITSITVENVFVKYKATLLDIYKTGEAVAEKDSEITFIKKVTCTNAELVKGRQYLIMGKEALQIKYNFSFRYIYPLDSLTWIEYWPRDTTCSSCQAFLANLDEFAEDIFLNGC

B1: APE1142 (antibody, IgG1, V domains shown)
VH: EVQLLESGGGLVQPGGSLRLSCAASGFTFSSYAMTWVRQAPGKGLEWVSVISGSGSTYYADSVKGRFTISRDNSKNTLYLQMNSLRAEDTAVYYCARRGLRYNYFDYWGQGTTLTVSS
VL: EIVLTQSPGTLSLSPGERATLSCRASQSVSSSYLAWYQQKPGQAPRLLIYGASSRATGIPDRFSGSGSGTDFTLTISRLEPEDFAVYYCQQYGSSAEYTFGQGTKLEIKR
inhibition of hemolysis of antibody-coated sheep erythrocytes (classical complement pathway, 1% normal human serum) [1]: 1 µM

Kd [2]: 0.2 nM | fold improvement in KD over APE777 [2]: 1000 fold
B2: APE1224 (antibody, V domains shown)
VH: B1 VH with V50A
VL: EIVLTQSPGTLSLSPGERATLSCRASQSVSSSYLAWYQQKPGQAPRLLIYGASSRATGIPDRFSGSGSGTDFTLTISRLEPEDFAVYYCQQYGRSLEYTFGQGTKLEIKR
inhibition of hemolysis of antibody-coated sheep erythrocytes (classical complement pathway, 1% normal human serum) [1]: 1 µM
